Here are results for four molecules from patent US20240108766A1 (Bayer, published 2024).

A word on the Kd: it is a measure of binding affinity in units of concentration.

Assay [1] has as its target T1, human LRRC15 extracellular domain with C-terminal His tag (human, UniProt Q8TF66 22-538).
T1 construct: Recombinant, made in HEK293; the entry holds the extracellular domain and the His tag; SPR analyte; also called TPP-1545; hLRRC15 CT-His
T1 sequence: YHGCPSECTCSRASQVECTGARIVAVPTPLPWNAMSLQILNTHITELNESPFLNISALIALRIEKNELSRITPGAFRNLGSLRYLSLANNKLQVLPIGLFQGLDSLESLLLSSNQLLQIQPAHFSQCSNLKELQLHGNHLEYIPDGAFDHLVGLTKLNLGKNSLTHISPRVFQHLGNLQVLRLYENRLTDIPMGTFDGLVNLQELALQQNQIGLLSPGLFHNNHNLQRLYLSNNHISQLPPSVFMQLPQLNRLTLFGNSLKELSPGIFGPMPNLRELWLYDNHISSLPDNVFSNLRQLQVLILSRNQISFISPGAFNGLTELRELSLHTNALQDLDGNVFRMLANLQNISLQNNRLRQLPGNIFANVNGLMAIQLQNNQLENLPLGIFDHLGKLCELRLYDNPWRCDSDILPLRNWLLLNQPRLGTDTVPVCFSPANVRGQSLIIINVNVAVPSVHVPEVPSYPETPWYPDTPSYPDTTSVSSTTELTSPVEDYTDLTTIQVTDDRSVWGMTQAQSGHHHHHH
The assay is described as follows: SPR Biacore T200, antibody captured, LRRC15 analyte, 25°C. How it is done: (§1) To assess if anti-LRRC-15 antibodies show a difference in binding at different temperatures, binding assays were conducted using surface plasmon resonance (SPR). Binding assays were performed on a Biacore T200 instrument at temperatures of 10° C., 20° C., 25° C. and 37° C. with assay buffer HBS EP+, 1 mg/ml BSA (bovine serum albumine), 300 mM NaCl, 0.05% NaN₃. Antibodies were captured via anti-human Fc IgGs covalently amine coupled to a CM5 sensor chip and human LRRC15 was used as an analyte in a concentration series from 1.56-200 nM in multi cycle kinetics mode. Pre-experiments were conducted to have an equal capture level at each temperature. Obtained sensorgrams were fitted to a 1:1 Langmuir binding model to derive kinetic data.

For assay [2], the target named is T2, human LRRC15 expressed on cells (human, UniProt Q8TF66 22-581).
T2 construct: whole, on cells; On HEK293 cells transfected with LRRC15/ZsGreen1 (Retrogenix), on HT29 cells transfected with human LRRC15, and endogenous on Saos-2; also called LRRC15/ZsGreen1 transfected HEK293 cells; HT29-LRRC15
T2 sequence (looked up): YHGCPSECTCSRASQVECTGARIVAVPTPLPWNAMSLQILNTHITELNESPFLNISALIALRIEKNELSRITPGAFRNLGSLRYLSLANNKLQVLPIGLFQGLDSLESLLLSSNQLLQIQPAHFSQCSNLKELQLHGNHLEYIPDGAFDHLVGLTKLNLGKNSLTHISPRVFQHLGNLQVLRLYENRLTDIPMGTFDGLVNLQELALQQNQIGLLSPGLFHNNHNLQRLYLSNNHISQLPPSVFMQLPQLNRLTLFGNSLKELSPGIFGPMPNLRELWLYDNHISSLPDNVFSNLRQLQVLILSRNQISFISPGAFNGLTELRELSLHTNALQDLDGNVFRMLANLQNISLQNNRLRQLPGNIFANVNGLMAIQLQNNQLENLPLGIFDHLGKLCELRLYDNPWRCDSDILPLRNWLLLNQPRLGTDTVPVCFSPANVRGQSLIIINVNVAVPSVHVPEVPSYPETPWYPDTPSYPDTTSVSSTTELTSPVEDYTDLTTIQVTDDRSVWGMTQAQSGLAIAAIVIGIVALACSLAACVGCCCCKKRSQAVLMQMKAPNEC
The assay is described as follows: flow cytometry, transfected HEK293, 0.02 µg/ml.

The target of assay [3] is T3, cynomolgus (Macaca fascicularis) LRRC15 extracellular domain with C-terminal His tag (cynomolgus monkey (Macaca fascicularis), UniProt Q8TF66 22-538 (human entry)).
T3 construct: Recombinant, made in HEK293; the entry holds the extracellular domain and the His tag; SPR analyte; also called TPP-9046
T3 chain: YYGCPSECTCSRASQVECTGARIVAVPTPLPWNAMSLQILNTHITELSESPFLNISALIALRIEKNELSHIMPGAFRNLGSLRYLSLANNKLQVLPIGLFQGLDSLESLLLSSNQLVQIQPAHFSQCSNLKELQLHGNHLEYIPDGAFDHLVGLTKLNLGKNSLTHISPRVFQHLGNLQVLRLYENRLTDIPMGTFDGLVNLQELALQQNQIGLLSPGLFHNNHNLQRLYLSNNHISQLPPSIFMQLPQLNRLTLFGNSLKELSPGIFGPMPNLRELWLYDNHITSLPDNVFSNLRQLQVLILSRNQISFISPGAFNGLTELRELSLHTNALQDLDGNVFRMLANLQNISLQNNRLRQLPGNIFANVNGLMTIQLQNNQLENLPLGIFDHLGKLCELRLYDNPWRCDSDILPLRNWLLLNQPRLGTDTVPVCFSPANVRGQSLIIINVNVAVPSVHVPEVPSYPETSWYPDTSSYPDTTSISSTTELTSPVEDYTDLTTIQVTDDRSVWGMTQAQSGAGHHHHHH
The assay is described as follows: SPR Biacore T200, 25°C, antibody captured, LRRC15 analyte.

The target of assay [4] is T1, human LRRC15 extracellular domain with …. The assay is described as follows: SPR Biacore T200, antibody captured, LRRC15 analyte, 20°C. How it is done: as §1
(In general: In SPR one partner is held on a chip, and binding of the other changes the refractive index at the surface.)

For assay [5] the target is unchanged. The assay is described as follows: calculated from SPR kd, 25°C. How it is done: as §1

B1: TPP-12942 (antibody, human IgG1, kappa, V domains shown)
VH: EVQLVQSGAEVKKPGASVKVSCKASGYKFSSYWIEWVKQAPGQGLEWIGEILPGSDTTNYNEKFKDRATFTSDTSINTAYMELSRLRSDDTAVYYCARDRGNYRAWFGYWGQGTLVTVSS
VL: DIQMTQSPSSLSASVGDRVTITCRASQDISNYLNWYQQKPGGAVKFLIYYTSRLHSGVPSRFSGSGSGTDYTLTISSLQPEDFATYFCQQGEALPWTFGGGTKVEIKR
notes: Prior art humanized IgG1 kappa antibody, used as comparator; also called huM25; huM25-hIgG1Kappa
As for B1, the values for the Kd in assay [1] and in assay [3] were 21 nM and 36 nM, respectively. Also, the “Median Fluorescence AF647” value in assay [2] is 63400.

B2: TPP-17078 (antibody, human IgG1, kappa, V domains shown)
VH: EVQLVQSGAEVKKPGASVKVSCKASGYKFSSYWIEWVKQAPGQGLEWIGEILPGSDTTNYNEKFKDRATFTSDTSINTAYMELSRLRSDDTAVYYCARDRGNYRAWFGYWGQGTLVTVSS
VL: DIQMTQSPSSLSASVGDRVTITCRASQSISSYLNWYQQKPGGAPKFLIYYASSLQSGVPSRFSGSGSGTDYTLTISSLQPEDFATYYCQQGFSLPWTFGGGTKVEIKR
notes: also called 438H-M308-H05-hIgGkappa
For the molecule B2, the equilibrium dissociation constant (Kd) in assay [4] stood at 0.88 nM; in assay [1], 1.6 nM; in assay [3], 1.8 nM. Further, the “Median Fluorescence AF647” value in assay [2] stood at 83700. The “Complex Half Life” value in assay [5] was 2.12 h.

B3: TPP-17421 (antibody, human IgG1, kappa, V domains shown)
VH: EVQLVQSGAEVKKPGASVKVSCKASGYKFSSYWIEWVKQAPGQGLEWIGEILPGSDWTNYNEKFKDRATFTSDTSINTAYMELSRLRSDDTAVYYCARDRGNYRAWFQYWGQGTLVTVSS
VL: DIQMTQSPSSLSASVGDRVTITCRASQSISSYLNWYQQKPGGAPKFLIYYASSLQSGVPSRFSGSGSGTDYTLTISSLQPEDFATYYCQQGLELPWTFGGGTKVEIKR
notes: also called 438H-M306-C11-hIgG1Kappa
B3: the Kd in assay [4] is 0.82 nM; in assay [1], 0.88 nM; in assay [3], 0.91 nM. Also, the “Median Fluorescence AF647” value in assay [2] is 35200. Also, the “Complex Half Life” value in assay [5] was 3.63 h.

B4: TPP-14389 (antibody, human IgG1, kappa, V domains shown)
VH: EVQLLESGGGLVQPGGSLRLSCAASGFTFSGYMMSWVRQAPGKGLEWVSGIYPSPGYTYYADSVKGRFTISRDNSKNTLYLQMNSLRAEDTAVYYCAREKASDLFGSYSEALDYWGQGTLVTVSS
VL: DIQMTQSPDSLSASVGDRVTITCRASQDVGSWLAWYQQKPGKAPKLLIFAASSLESGIPSRFSGSGSGTDFTLTISSLQPEDFATYYCQQANGFPLTFGGGTKVEIKR
notes: also called 13612-rec02-hIgG1Kappa
Take B4: the figures for the Kd in assay [4], in assay [1] and in assay [3] were 2 nM, 5.4 nM and 9 nM, respectively. Besides, the “Complex Half Life” value in assay [5] is 0.148 h.
